Measured values taken from the supplement of paper PMC9112550, “Optimization of the antimicrobial peptide Bac7 by deep mutational scanning” (BMC Biology, 2022).

What follows are sequences tested on Escherichia coli TOP10 (assay: shrunken log2 fold change of peptide-encoding DNA abundance (4.5 h post-induction vs induction); higher = less antimicrobial activity (less host growth inhibition)). Conditions: time post-induction: 4.5 h; library: site-saturation at positions 5, 18, 19, 20.
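Further: peptides expressed intracellularly from a pBAD plasmid library in pooled LB shake-flask culture, induced with 0.3% L-arabinose, DNA abundance read by NGS, three biological replicates, DESeq2 with apeglm shrinkage.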

Row | Sequence | shrunken log2 fold change
1 | RRIRIRPPRLPRPRPRPLVSPRP | -0.244
2 | RRIRIRPPRLPRPRPRPLWIPRP | -0.445
3 | RRIRIRPPRLPRPRPRPLWWPRP | 0.266
4 | RRIRIRPPRLPRPRPRPMCDPRP | -0.356
5 | RRIRIRPPRLPRPRPRPMDKPRP | -0.448
6 | RRIRIRPPRLPRPRPRPMDQPRP | 0.0178
7 | RRIRIRPPRLPRPRPRPMDYPRP | -0.00141
8 | RRIRIRPPRLPRPRPRPMITPRP | -0.616
9 | RRIRIRPPRLPRPRPRPMNDPRP | -0.00303
10 | RRIRIRPPRLPRPRPRPMNQPRP | -0.169
11 | RRIRIRPPRLPRPRPRPMPAPRP | 0.0451
12 | RRIRIRPPRLPRPRPRPMPVPRP | -0.244
13 | RRIRIRPPRLPRPRPRPMQHPRP | -0.289
14 | RRIRIRPPRLPRPRPRPMQWPRP | -0.192
15 | RRIRIRPPRLPRPRPRPMRFPRP | -0.0444
16 | RRIRIRPPRLPRPRPRPMRNPRP | 0.167
17 | RRIRIRPPRLPRPRPRPMSMPRP | -0.281
18 | RRIRIRPPRLPRPRPRPMWKPRP | -0.0693
19 | RRIRIRPPRLPRPRPRPMWRPRP | 0.19
20 | RRIRIRPPRLPRPRPRPMYLPRP | -0.249
21 | RRIRIRPPRLPRPRPRPNAWPRP | 0.213
22 | RRIRIRPPRLPRPRPRPNCVPRP | -0.376
23 | RRIRIRPPRLPRPRPRPNDPPRP | -0.19
24 | RRIRIRPPRLPRPRPRPNDQPRP | -0.43
25 | RRIRIRPPRLPRPRPRPNFDPRP | 0.235

Row | Sequence | shrunken log2 fold change
26 | RRIRIRPPRLPRPRPRPNFHPRP | -0.52
27 | RRIRIRPPRLPRPRPRPNFTPRP | -0.545
28 | RRIRIRPPRLPRPRPRPNGVPRP | -0.37
29 | RRIRIRPPRLPRPRPRPNHNPRP | -0.518
30 | RRIRIRPPRLPRPRPRPNITPRP | -0.726
31 | RRIRIRPPRLPRPRPRPNLEPRP | -0.114
32 | RRIRIRPPRLPRPRPRPNMVPRP | -0.383
33 | RRIRIRPPRLPRPRPRPNPHPRP | -0.581
34 | RRIRIRPPRLPRPRPRPNQIPRP | -0.713
35 | RRIRIRPPRLPRPRPRPNTLPRP | -0.818
36 | RRIRIRPPRLPRPRPRPNVPPRP | 0.0631
37 | RRIRIRPPRLPRPRPRPNYAPRP | -0.381
38 | RRIRIRPPRLPRPRPRPNYRPRP | -0.00601
39 | RRIRIRPPRLPRPRPRPPAAPRP | 0.458
40 | RRIRIRPPRLPRPRPRPPADPRP | 0.271
41 | RRIRIRPPRLPRPRPRPPCRPRP | 0.0264
42 | RRIRIRPPRLPRPRPRPPDEPRP | -0.0174
43 | RRIRIRPPRLPRPRPRPPELPRP | -0.123
44 | RRIRIRPPRLPRPRPRPPFFPRP | 0.41
45 | RRIRIRPPRLPRPRPRPPGKPRP | 0.324
46 | RRIRIRPPRLPRPRPRPPGPPRP | 0.575
47 | RRIRIRPPRLPRPRPRPPGTPRP | 0.029
48 | RRIRIRPPRLPRPRPRPPHYPRP | -0.707
49 | RRIRIRPPRLPRPRPRPPIHPRP | -0.614
50 | RRIRIRPPRLPRPRPRPPLIPRP | -0.512

Row | Sequence | shrunken log2 fold change
51 | RRIRIRPPRLPRPRPRPPLVPRP | 0.0482
52 | RRIRIRPPRLPRPRPRPPMDPRP | -0.372
53 | RRIRIRPPRLPRPRPRPPNIPRP | -0.0703
54 | RRIRIRPPRLPRPRPRPPPKPRP | 0.46
55 | RRIRIRPPRLPRPRPRPPQKPRP | 0.0534
56 | RRIRIRPPRLPRPRPRPPQPPRP | 0.343
57 | RRIRIRPPRLPRPRPRPPRWPRP | 0.514
58 | RRIRIRPPRLPRPRPRPPTCPRP | -0.278
59 | RRIRIRPPRLPRPRPRPPTIPRP | -0.904
60 | RRIRIRPPRLPRPRPRPPVIPRP | -0.108
61 | RRIRIRPPRLPRPRPRPPWWPRP | 0.516
62 | RRIRIRPPRLPRPRPRPQAIPRP | 0.0305
63 | RRIRIRPPRLPRPRPRPQAPPRP | -0.331
64 | RRIRIRPPRLPRPRPRPQAVPRP | -0.0119
65 | RRIRIRPPRLPRPRPRPQDMPRP | -0.0502
66 | RRIRIRPPRLPRPRPRPQGHPRP | -0.0464
67 | RRIRIRPPRLPRPRPRPQHSPRP | -0.463
68 | RRIRIRPPRLPRPRPRPQIKPRP | -0.853
69 | RRIRIRPPRLPRPRPRPQKWPRP | -0.0915
70 | RRIRIRPPRLPRPRPRPQLAPRP | -0.0191
71 | RRIRIRPPRLPRPRPRPQMNPRP | -0.887
72 | RRIRIRPPRLPRPRPRPQMVPRP | -0.186
73 | RRIRIRPPRLPRPRPRPQPVPRP | -0.169
74 | RRIRIRPPRLPRPRPRPQRIPRP | -0.536
75 | RRIRIRPPRLPRPRPRPQSRPRP | -0.0532
